Consider two substances from patent US20190248848A1.

Assay [1] has as its target histone H3 trimethylated at lysine 27 (H3K27me3) in cellular chromatin at the Tk-luciferase reporter of HEK293 Gal4-EED/luc cells. Kind of assay: cell-based or functional assay.
In assay [2] the target is biotinylated histone H3 peptide trimethylated at lysine 27, H3K27me3 (21-44) (UniProt P68431). Kind of assay: histone peptide microspot array, 10 and 20 µM spotted H3K27me3.

The substance “Pc2TF with the flexible linker (GGGGS)4 (MV10 mammalian expression construct, expressed in HEK293 Gal4-EED/luc cells) (from UniProt Q9HC52 1-62; Q9HC52 1-62) (designed binder)” showed a luciferase activity, Tk-luciferase reporter, HEK293 Gal4-EED/luc cells, 96 hours dox (fold against PcTF) in assay [1] of 2. In turn, “Pc2TF, bivalent Polycomb-based transcription factor with the flexible linker (GGGGS)4 (pET28 construct; TXTL-expressed or purified from E. coli) (from UniProt Q9HC52 1-62; Q9HC52 1-62) (designed binder)” came in with a fold smaller Kd^app than PcTF in assay [2] of 2 fold.
